# Measured values from IntAct's records for PubMed 29039417.
# B1: Protein PTHB1 (Homo sapiens), Q3SYG4 (parent)
# chain: MSLFKARDWWSTILGDKEEFDQGCLCLANVDNSGNGQDKIIVGSFMGYLRIFSPHPAKTGDGAQAEDLLLEVDLRDPVLQVEVGKFVSGTEMLHLAVLHSRKLCVYSVSGTLGNVEHGNQCQMKLMYEHNLQRTACNMTYGSFGGVKGRDLICIQSMDGMLMVFEQESYAFGRFLPGFLLPGPLAYSSRTDSFLTVSSCQQVESYKYQVLAFATDADKRQETEQQKLGSGKRLVVDWTLNIGEQALDICIVSFNQSASSVFVLGERNFFCLKDNGQIRFMKKLDWSPSCFLPYCSVSEGTINTLIGNHNNMLHIYQDVTLKWATQLPHIPVAVRVGCLHDLKGVIVTLSDDGHLQCSYLGTDPSLFQAPNVQSRELNYDELDVEMKELQKIIKDVNKSQGVWPMTEREDDLNVSVVVSPNFDSVSQATDVEVGTDLVPSVTVKVTLQNRVILQKAKLSVYVQPPLELTCDQFTFEFMTPDLTRTVSFSVYLKRSYTPSELEGNAVVSYSRPTDRNPDGIPRVIQCKFRLPLKLICLPGQPSKTASHKITIDTNKSPVSLLSLFPGFASQSDDDQVNVMGFHFLGGARITVLASKTSQRYRIQSEQFEDLWLITNELILRLQEYFEKQGVKDFACSFSGSIPLQEYFELIDHHFELRINGEKLEELLSERAVQFRAIQRRLLARFKDKTPAPLQHLDTLLDGTYKQVIALADAVEENQGNLFQSFTRLKSATHLVILLIALWQKLSADQVAILEAAFLPLQEDTQELGWEETVDAAISHLLKTCLSKSSKEQALNLNSQLNIPKDTSQLKKHITLLCDRLSKGGRLCLSTDAAAPQTMVMPGGCTTIPESDLEERSVEQDSTELFTNHRHLTAETPRPEVSPLQGVSE
# partner: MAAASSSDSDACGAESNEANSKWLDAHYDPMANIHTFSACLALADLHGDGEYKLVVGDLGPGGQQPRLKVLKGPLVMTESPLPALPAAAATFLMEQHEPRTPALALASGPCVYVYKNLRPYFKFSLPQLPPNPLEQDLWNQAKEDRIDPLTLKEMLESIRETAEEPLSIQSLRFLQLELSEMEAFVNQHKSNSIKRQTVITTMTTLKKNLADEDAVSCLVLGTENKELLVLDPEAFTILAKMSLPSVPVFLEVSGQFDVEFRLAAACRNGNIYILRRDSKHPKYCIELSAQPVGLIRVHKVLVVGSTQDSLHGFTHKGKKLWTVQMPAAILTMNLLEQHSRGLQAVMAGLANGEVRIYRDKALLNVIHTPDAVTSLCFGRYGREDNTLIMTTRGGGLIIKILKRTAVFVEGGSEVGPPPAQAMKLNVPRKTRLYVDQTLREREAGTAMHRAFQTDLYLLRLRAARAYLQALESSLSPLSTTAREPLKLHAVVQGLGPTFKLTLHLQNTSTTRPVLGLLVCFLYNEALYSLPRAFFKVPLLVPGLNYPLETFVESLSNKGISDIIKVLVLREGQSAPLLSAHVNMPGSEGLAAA
# B2: Isoform 2 of Bardet-Biedl syndrome 7 protein (Homo sapiens), Q8IWZ6-2 (parent)
# chain: MDLILNRMDYLQVGVTSQKTMKLIPASRHRATQKVVIGDHDGVVMCFGMKKGEAAAVFKTLPGPKIARLELGGVINTPQEKIFIAAASEIRGFTKRGKQFLSFETNLTESIKAMHISGSDLFLSASYIYNHYCDCKDQHYYLSGDKINDVICLPVERLSRITPVLACQDRVLRVLQGSDVMYAVEVPGPPTVLALHNGNGGDSGEDLLFGTSDGKLALIQITTSKPVRKWEIQNEKKRGGILCIDSFDIVGDGVKDLLVGRDDGMVEVYSFDNANEPVLRFDQMLSESVTSIQGGCVGKDSYDEIVVSTYSGWVTGLTTEPIHKESGPGEELKINQEMQNKISSLRNELEHLQYKVLQERENYQQSSQSSKAKSAVPSFGINDKFTLNKDDASYSLILEVQTAIDNVLIQSDVPIDLLDVDKNSAVVSFSSCDSESNDNFLLATYRCQADTTRLELKIRSIEGQYGTLQAYVTPRIQPKTCQVRQYHIKPLSLHQRTHFIDHDRPMNTLTLTGQFSFAEVHSWVVFCLPEVPEKPPAGECVTFYFQNTFLDTQLESTYRKGEGVFKSDNISTISILKDVLSKEATKRKINLNISYEINEVSVKHTLKLIHPKLEYQLLLAKKVQLIDALKELQIHEGNTNFLIPEYHCILEEADHLQEEYKKQPAHLERLYG
# partner: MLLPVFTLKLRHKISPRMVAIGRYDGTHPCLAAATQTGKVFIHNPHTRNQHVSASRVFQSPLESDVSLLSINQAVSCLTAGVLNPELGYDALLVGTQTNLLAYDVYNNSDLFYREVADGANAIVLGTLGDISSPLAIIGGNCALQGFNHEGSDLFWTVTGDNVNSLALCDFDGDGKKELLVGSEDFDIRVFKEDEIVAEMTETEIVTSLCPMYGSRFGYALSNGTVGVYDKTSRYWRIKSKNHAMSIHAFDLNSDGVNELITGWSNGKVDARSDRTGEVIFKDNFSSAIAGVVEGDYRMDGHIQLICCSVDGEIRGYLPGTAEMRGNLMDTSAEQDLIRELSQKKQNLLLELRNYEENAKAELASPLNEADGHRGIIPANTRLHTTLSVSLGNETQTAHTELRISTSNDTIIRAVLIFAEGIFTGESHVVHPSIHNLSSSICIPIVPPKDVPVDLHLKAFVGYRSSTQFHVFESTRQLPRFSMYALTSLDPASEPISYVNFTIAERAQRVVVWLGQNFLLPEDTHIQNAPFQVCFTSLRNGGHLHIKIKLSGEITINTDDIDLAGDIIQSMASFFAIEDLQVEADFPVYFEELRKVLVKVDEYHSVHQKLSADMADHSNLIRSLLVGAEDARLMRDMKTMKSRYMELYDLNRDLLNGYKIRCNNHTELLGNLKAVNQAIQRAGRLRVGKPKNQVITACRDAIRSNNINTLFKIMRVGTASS
# Variants of: B1
# Conditions: with bbs1_human BBS1, Q8NFJ9
row,Variant,effect of a mutation on the interaction
1,S423A,with no effect
2,S423K,with no effect
3,S423E,with no effect
4,Q426A,with no effect
5,Q426E,with no effect
6,Q426K,with no effect
7,V415A,with no effect
8,V415E,with no effect
9,V415K,with no effect
10,T428A,with no effect
11,T428K,with no effect
12,T428E,with no effect
13,V437E,with no effect
14,V437K,with no effect
15,V437A,with no effect
16,P438E,with no effect
17,P438A,with no effect
18,P438K,with no effect
19,Q453A,with no effect
20,Q453E,with no effect
21,Q453K,with no effect
22,S418E,with no effect
23,S418A,with no effect
24,S418K,with no effect

row,Variant,effect of a mutation on the interaction
1,S439K,with no effect
2,S439A,with no effect
3,S439E,with no effect
4,R449E,with no effect
5,R449K,with no effect
6,R449A,with no effect
7,K454E,with no effect
8,K454A,with no effect
9,A455E,with no effect
10,A455K,with no effect
11,G433E,with no effect
12,G433A,with no effect
13,G433K,with no effect
14,V444A,with no effect
15,V444K,with no effect
16,V444E,with no effect
17,L411K,with no effect
18,L411A,with no effect
19,L411E,with no effect
20,E406K,with no effect
21,E406A,with no effect
22,N420K,with no effect
23,N420E,with no effect
24,N420A,with no effect

row,Variant,effect of a mutation on the interaction
1,K456A,with no effect
2,K456E,with no effect
3,T441E,with no effect
4,T441K,with no effect
5,T441A,with no effect
6,Q462E,with no effect
7,Q462T,disrupting interaction strength
8,Q462K,with no effect
9,Q462A,with no effect
10,I451K,with no effect
11,I451E,with no effect
12,I451A,with no effect
13,D409A,with no effect
14,D409K,with no effect
15,D409E,with no effect
16,N448A,with no effect
17,N448K,with no effect
18,N448E,with no effect
19,L446E,with no effect
20,L446A,with no effect
21,L446K,with no effect
22,K443A,with no effect
23,K443E,with no effect
24,V430A,with no effect

row,Variant,effect of a mutation on the interaction
1,V430K,with no effect
2,V430E,with no effect
3,L436K,with no effect
4,L436E,with no effect
5,L436A,with no effect
6,A427E,with no effect
7,A427K,with no effect
8,V432K,with no effect
9,V432A,with no effect
10,V432E,disrupting interaction strength
11,T405K,with no effect
12,T405E,with no effect
13,T405A,with no effect
14,Y460K,with no effect
15,Y460A,with no effect
16,Y460E,with no effect
17,S425E,with no effect
18,S425K,with no effect
19,S425A,with no effect
20,P419A,with no effect
21,P419K,with no effect
22,P419E,with no effect
23,T445K,with no effect
24,T445A,with no effect

row,Variant,effect of a mutation on the interaction
1,T445E,with no effect
2,D410K,with no effect
3,D410A,with no effect
4,D410E,with no effect
5,L452A,with no effect
6,L452E,with no effect
7,L452K,with no effect
8,V413K,with no effect
9,V413E,with no effect
10,V413A,with no effect
11,T434E,with no effect
12,T434A,with no effect
13,T434K,with no effect
14,R407E,with no effect
15,R407A,with no effect
16,R407K,with no effect
17,D422K,with no effect
18,D422A,with no effect
19,D422E,with no effect
20,V417K,with no effect
21,V417A,with no effect
22,V417E,with no effect
23,V442K,with no effect
24,V442E,with no effect

row,Variant,effect of a mutation on the interaction
1,V442A,with no effect
2,D429A,with no effect
3,D429K,with no effect
4,D429E,with no effect
5,V450A,with no effect
6,V450E,with no effect
7,V450K,with no effect
8,V424K,with no effect
9,V424A,with no effect
10,V424E,with no effect
11,S414E,with no effect
12,S414A,with no effect
13,S414K,with no effect
14,N412K,with no effect
15,N412E,with no effect
16,N412A,with no effect
17,F421A,with no effect
18,F421K,with no effect
19,F421E,with no effect
20,E431A,with no effect
21,E431K,with no effect
22,V459K,with no effect
23,V459E,disrupting interaction strength
24,V459A,with no effect

row,Variant,effect of a mutation on the interaction
1,D435A,with no effect
2,D435K,with no effect
3,D435E,with no effect
4,V416A,with no effect
5,V416K,with no effect
6,V416E,with no effect
7,L457A,with no effect
8,L457E,with no effect
9,L457K,with no effect
10,Q447E,with no effect
11,Q447K,with no effect
12,Q447A,with no effect
13,S458K,with no effect
14,S458A,with no effect
15,S458E,with no effect
16,V461E,with no effect
17,V461A,with no effect
18,V461K,with no effect
19,V440E,with no effect
20,V440K,with no effect
21,V440A,with no effect
22,E408A,with no effect
23,E408K,with no effect

# Variants of: B2
# Conditions: with bbs2_human BBS2, Q9BXC9
row,Variant,effect of a mutation on the interaction
1,Y671A,with no effect
2,Y671E,with no effect
3,Y671K,with no effect
4,G672A,with no effect
5,G672E,with no effect
6,G672K,with no effect
7,E668K,with no effect
8,E668A,with no effect
9,L670A,with no effect
10,L670K,with no effect
11,L670E,with no effect
12,H666E,with no effect
13,H666K,with no effect
14,L667K,with no effect
15,L667A,with no effect
16,L667E,with no effect
17,R669A,with no effect
18,R669E,with no effect
19,R669K,with no effect

# Variants of: B2
# Conditions: with bbs2_human BBS2, Q9BXC9
# Remark: another data set of the same source
row,Variant,effect of a mutation on the interaction
1,S556R,with no effect
